Measurements reported in PMC5431231, “Identification of a nanobody specific to human pulmonary surfactant protein A” (Scientific Reports, 2017).
Changes are numbered by the printed parent chain. Like-named read-outs stand apart in the source and are kept apart here.

B1: Nb11 (VHH)
VHH: QLQLVESGGGLVQPGGSLRLSCTASKFHLDSYAVAWFRQTPGKEREAVSFINTSDDVTYFADSVKGRFTISRDNSKNTVYLQMNVLKPEDTSIYVCAAVRSPGPTGPSMQPMWSVPDLYDYWGQGTQVTVSS
B2: Nb29 (VHH)
VHH: QVKLVESGGGSVQAGGSLRLSCTASGSDYRWMYIARFRQCPGKEREGVAAIYTDDTDDSSPIYATSAKGRFTISQDKDKNAVYLQMNSPKPEDTAMYYCAARAFGGTWSLSSPDDFSAWGQGTQVTVSS
B3: Nb38 (VHH)
VHH: B2 VHH with R19I
B4: Nb15 (VHH)
VHH: QLQLVESGGGLVQPGGSLSVSCAVRGRDLDYYVIGWFRQAPGKEREGVSCINNSDDTTYYSDSVKGRFTISRDHAKNTVYLQMNNLKPEDTALYYCAADFDRLDFTVKAMCVMKFFYYWGQGTQVTVSS
B5: Nb6 (VHH)
VHH: QLQLVESGGDLAQPGGSLTLSCTASGTFKIYSMGWYRRPQRELVAEMLNGGDTQYSDSVKGRFTISRTNNTMYLHMNNLKPEDTAVYYCNLQDWYSEPAGDYWGPGTQVTVSS
B6: Nb43 (VHH)
VHH: QLQLVESGGGLVQSGGSLRLSCAASGFTFNDYRMSWVRQAPGKGLEWVSDINSGGSSTYYADSVKGRFTVSRDNAKNTLYLQMNSLKPEDTAIYYCVALLGRGCSGLVQGAFGPWGQGTQVTVSS
B7: Nb17 (VHH)
VHH: QLQLVESGGGLVQPGGSLRLACAASGFNLDDYADIGWFRQAPGKERERVLCITISDGTTYYEDSGKGRFSISTDIAKNTVFLQMDSLKAEDTAVYYCAGDPAPFCLYNTYVPRTWGQGTQVTVSS
B8: Nb4 (anti-human pulmonary SP-A nanobody) (VHH)
VHH: QLQLVESGGGLVQPGGSLRLSCAASEFTLDYYEIGWFRQAPGKDREGLSCIGYSDRIAYYSESVKGRFTTVRDDATSTVSLYMDMMIPEDTGTYYCAGSVVEPYELLPAAEYDYWGQGTRVTVSS
notes: About 19 kDa on SDS-PAGE; also called Nb4-His; source: E. coli BL21 (pET-26b (+)-VHH), purified
B9: Nb4-FITC (VHH)
VHH: B8 VHH
notes: as the VHH chain of m1; Same nanobody as m1, with a FITC label; also called Nb4 labeled with FITC; source: E. coli BL21 (pET-26b (+)-VHH), purified, labeled with FITC

Assays:
[1] = biological target: T1, human pulmonary SP-A protein in human lung tissue (Homo sapiens, endogenous lung tissue, UniProt Q8IWL2)
[2] = biological target: T1, human pulmonary SP-A protein in human …; assay: far-Western, overlay or dot blot; human lung tissue homogenate proteins separated by SDS-PAGE, transferred to a PVDF membrane and probed with Nb4 overnight at 4 °C; detected with anti-His-HRP; details: one partner purified
[3] = biological target: T2, recombinant human SP-A protein (pulmonary surfactant protein A) (Homo sapiens, UniProt Q8IWL2); assay: BLI; ForteBio's Octet System; Nb4 and purified recombinant human SP-A; who was immobilised is not stated; details: both partners purified
T2 construct: human pulmonary surfactant protein A; gene provided by Shanghai YouLong Biotech; About 41 kDa on SDS-PAGE, which would fit a fusion with the carrier of the pET32 vector; also called purified recombinant SP-A; PET32-SPA; source: E. coli BL21 (PET32-SPA), purified

[4] = biological target: T3, SP-A in human lung epithelial A549 cells (Homo sapiens, endogenous in A549 cells, UniProt Q8IWL2); assay: immunostaining of cells or tissue; fixed A549, L-02 and 293T cells stained with Nb4-FITC; confocal microscopy; details: one partner purified
T3 construct: human pulmonary surfactant protein A, endogenous in A549 cells; source: endogenous, A549 cells, fixed
T3 sequence (Q8IWL2 21-248): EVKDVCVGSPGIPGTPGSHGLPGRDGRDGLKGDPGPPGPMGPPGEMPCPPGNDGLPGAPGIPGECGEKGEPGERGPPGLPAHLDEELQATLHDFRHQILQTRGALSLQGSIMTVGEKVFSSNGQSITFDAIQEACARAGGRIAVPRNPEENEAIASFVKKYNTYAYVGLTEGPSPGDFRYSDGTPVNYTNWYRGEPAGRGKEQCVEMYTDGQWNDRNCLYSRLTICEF

T1 sequence (Q8IWL2 21-248): as above
T2 sequence (Q8IWL2 21-248): as above

| Binder | binding result [1] | further results |
| --- | --- | --- |
| B1 | binds |  |
| B2 | binds |  |
| B3 | binds |  |
| B4 | binds |  |
| B5 | binds |  |
| B6 | binds |  |
| B7 | binds |  |
| B8 |  | binding result [2]: binds; Kd [3]: 748 nM |
| B9 |  | binding result [4]: binds |
